Test results reported in PMC9872521.

Substrate: NCCc1ccc(O)c(O)c1
Experiment: cells, lysate or membranes
Conditions: sodium inward-facing conformation favors substrates

B1: human dopamine transporter (hDAT) (Homo sapiens) (protein)
chain: MSKSKCSVGLMSSVVAPAKEPNAVGPKEVELILVKEQNGVQLTSSTLTNPRQSPVEAQDRETWGKKIDFLLSVIGFAVDLANVWRFPYLCYKNGGGAFLVPYLLFMVIAGMPLFYMELALGQFNREGAAGVWKICPILKGVGFTVILISLYVGFFYNVIIAWALHYLFSSFTTELPWIHCNNSWNSPNCSDAHPGDSSGDSSGLNDTFGTTPAAEYFERGVLHLHQSHGIDDLGPPRWQLTACLVLVIVLLYFSLWKGVKTSGKVVWITATMPYVVLTALLLRGVTLPGAIDGIRAYLSVDFYRLCEASVWIDAATQVCFSLGVGFGVLIAFSSYNKFTNNCYRDAIVTTSINSLTSFSSGFVVFSFLGYMAQKHSVPIGDVAKDGPGLIFIIYPEAIATLPLSSAWAVVFFIMLLTLGIDSAMGGMESVITGLIDEFQLLHRHRELFTLFIVLATFLLSLFCVTNGGIYVFTLLDHFAAGTSILFGVLIEAIGVAWFYGVGQFSDDIQQMTGQRPSLYWRLCWKLVSPCFLLFVVVVSIVTFRPPHYGAYIFPDWANALGWVIATSSMAMVPIYAAYKFCSLPGSFREKLAYAIAPEKDRELVDRGEVRQFTLRHWLKV
Q: How did the Km turn out when B1 was run?
A: 2.31 µM
